Source: the supplement of paper PMC12042874
± gives the uncertainty stated by the source.

Experiment: amyloid nucleation score (Sup35N fusion, yeast selection) (log enrichment); library NNK1; higher = more nucleation; inactive = no reads after selection
Outline: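 Plasmid inserts were Illumina-sequenced at input and output from psi-negative yeast expressing Sup35N fused to peptides of 20 random codons. The yeast were induced with 100 μM copper sulfate for 24 hours and grown 7 days at 30°C on medium lacking adenine and uracil, and sequences with under 100 input reads were excluded. Nucleation score is the DiMSum log enrichment of output over input reads, centred on the mode score of non-aggregating sequences.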

Substance | amyloid nucleation score
VLCNLTVS | -0.907 ± 1.8
TRTRLEHNSVRKFWEL | inactive
SDLMWVLSCESLRITHRLVG | 1.93 ± 0.56
SMHHGFYCDVWLGGVILRCK | 0.047 ± 0.56
AILFLFFN | 2.66 ± 0.14
FKYYQAGSYNRKRMTQDGGS | 0.175 ± 0.46
KNDYSYWL | -0.275 ± 0.65
GGPVREYTRMSPSVGVLDEA | 0.489 ± 0.86
EVFNEKSVSLRGWNIHGNFC | 0.03 ± 0.94
VFIDGLTSYTEIMRL | inactive
SHGVVYGFIMLVMEEYLRQQ | -0.376 ± 0.27
HLWFE | -0.146 ± 0.43
TGNYDYVSFNQRKLHGCFNQ | -0.652 ± 0.93
DMHQRMPVFHGHRATYCC | 0.102 ± 0.56
AYLNREFGFLFTLNFGCGFF | -0.636 ± 0.39
FAFRRSI | 0.332 ± 0.9
AVKYRGNVMFKIRHIMLKCM | 0.023 ± 0.42
GTLHSKCRGICLDCVAIVIL | -0.092 ± 0.39
SRNLGMYHMYFKFPWCMNPM | -0.15 ± 0.46
ICDINQCRMAFYLCFLLREY | 3.35 ± 0.099
DKLICLMLEAASICYKVQSG | -0.673 ± 0.57
LHERRYSLLSLESLIHNKSC | -0.752 ± 0.61
FSAKYMQGTQWSRLVHMLRT | 0.112 ± 0.48
QIIEPRARENGRINMMMVGG | 0.481 ± 0.61
VHTWYHCLSAEMSVMSILDL | -0.39 ± 1.7

Substance | amyloid nucleation score
NCTRWTLNTDVCSLDRHVPH | -0.5 ± 2.1
CLNSHFGKNISNLFVCDLVC | 0.484 ± 0.61
VLSCLPHAINFFYPSRSK | 1.05 ± 0.35
VFFYSRT | 3.02 ± 0.08
FLNMQYRGLQ | 3.42 ± 0.11
EDHVVYQSADRFLRNCNWEY | 0.266 ± 0.43
HNVLRSHTSRYRYVM | 0.226 ± 0.7
MALMYLMVTRVDLALSL | 0.072 ± 0.34
LLFYYLHIFMFSDDRVM | 0.582 ± 0.56
KLLHLVIVDELCFVRYSGLA | 0.381 ± 0.81
MNASITFSVLWVACETKCRV | 3.42 ± 0.14
SEQSMTY | inactive
LCELQYAKWIMKLVYKTFTT | inactive
PVGRCDQRDTRIHWGNYKVE | inactive
RYYLISEPILWIYGY | -0.031 ± 0.33
QCRILAHAGLLPSGTCPMWL | -0.919 ± 0.92
LVESMNLIPATANRHNFTRL | -0.672 ± 1.4
TLKHLNATISHT | 1.1 ± 0.71
DGRRTDWVLCNGARIRTCYD | -0.316 ± 0.44
GDLSLRLLG | 0.419 ± 0.66
GHWLRQVSRRLVPADDCMVQ | inactive
SSIESSYGKFLRGIVSESIK | 0.485 ± 0.55
CSNEK | 0.319 ± 0.97
YPGQARNRVLCCGWKFFIDQ | 3.39 ± 0.15
ATVKVPNNSIRNDFFSNDRD | -1.13 ± 1.2

Substance | amyloid nucleation score
RYDSRFALPLDLS | -0.245 ± 0.45
LFRNANAMDYVVRCWCSRGI | 0.928 ± 0.18
HAIGTQMVTLGLRSISFSWN | 1.19 ± 0.67
LDNRYFGHIMSLELMFIRPS | 1.19 ± 0.58
RYSGFLSVSLL | -0.087 ± 1
GNSRQYAFNRQIHMSSGESR | -0.535 ± 0.66
IMAFNDRDHG | -0.093 ± 0.21
CPHALYKSLIIPGSMFYKVR | -1.04 ± 1.7
KLQMGFIKMFAGQECFDVHA | inactive
AGMDVDSLYNRYGYGLEVG | -0.512 ± 0.81
YYVLFNAFQLIPLGWGNYS | inactive
FLSGYGSCLELANVIRWLEN | 1.19 ± 0.69
MGNTLITLIVGSGAL | 3.44 ± 0.18
LLYRMKVFADVGGDVLKSEG | inactive
RCYYLGHVHRICGRWGWGPR | 0.37 ± 0.52
SVLVWADLCHDTEA | 0.42 ± 0.84
SEMGYPGWTGKERKRLSNWA | -0.989 ± 0.8
TCVIFLVLCQALSFPVLALC | 0.095 ± 0.79
NTVFL | 0.549 ± 0.39
LIQIDLF | -0.264 ± 0.56
IMSYLKTLSPVIAMRTIERP | 0.821 ± 0.5
LGYRPWFWTTAFSSLADLAR | -0.907 ± 1.3
AAKRM | 1.11 ± 0.52
FFRRS | 0.924 ± 0.26
VTNYGYDLFVLILDGAMNLS | 0.407 ± 0.51

Substance | amyloid nucleation score
VKDATSHASGDFGRPGHWDK | -0.042 ± 0.55
WGYNRLNDDELLIMSKFLRQ | 1 ± 0.48
YYHRSNTLLSIYVSKLLTNN | -0.183 ± 1.2
TGEPKRS | 1.58 ± 0.49
MSPWASNHLW | inactive
KSLSRFRVTNSKEYMSAMGT | -0.299 ± 0.26
VWNYVYGMMWCM | 5.54 ± 0.09
SGAGVGSPVVKELSWFKLKV | 0.331 ± 0.77
GIVSAESWSLLQDRHFGAVK | 0.578 ± 0.55
LRPYFLGCRRSKKPKALLAG | 0.252 ± 0.8
ADSHYSDVGGYWMNSSLCK | 1.31 ± 0.8
CWGFYL | -0.976 ± 1.1
DFLNWWCRCVTFNSGRSGFV | 0.392 ± 0.6
FYSMSGWYSTVKGVCIRTLT | 1.02 ± 0.35
RLGLVVSVGRRRLLTAQLGK | 1.38 ± 0.72
LALVFLLMFVHQSDDYKLRN | 2.89 ± 0.17
IQSFAMLMQVCLIAHLYRRL | 0.108 ± 1
FNLNNGIR | inactive
ILSRKGLLVQRKRVNVVVIP | 0.437 ± 0.32
GMYPGESSWKLEKEVIL | 0.539 ± 0.6
RFSAK | 0.585 ± 0.33
SWYIKVFRFGLFHWSSGVGW | inactive
TAPKIFLGGIL | inactive
SWDEAVSWHSRSVVSAGGVA | -0.813 ± 1.3
GGGSMAGAERPGGLGQVRCN | 1.2 ± 0.6

Substance | amyloid nucleation score
QNMLFTIKRFSNQPDTVVFE | -0.202 ± 0.49
WNEVILILDNCAIVCYDILT | 4.05 ± 0.054
FWLIHGMIQMGYVK | -0.458 ± 1.2
RYICSYCYALCGFGDYYGGK | 0.24 ± 0.34
STFIDGSGIVALHCNSGCLA | 0.86 ± 0.73
KACFPLI | 0.631 ± 0.45
NGSSLVANELRVWIVSSFML | -0.59 ± 0.64
CLARGSKYWNRQNKVNFPYI | 1.51 ± 0.13
LVGVWMDCLMKPKPIARTLP | inactive
VSYNVRIGWAVYN | 0.89 ± 0.27
TIYISVSNRSVDSKDMGYGS | inactive
FYPYN | 0.743 ± 0.79
RPKHTGTINYKHVHTNYVEG | 1.36 ± 0.47
SYPSGSP | -0.061 ± 0.96
NRFNRYNVFPVYDQNLESPL | 0.205 ± 0.38
CGVLKTRIPLCFGVFEWNSL | 0.475 ± 0.72
SCQATLLFLSYSSNVGLIST | -0.267 ± 1.1
NSDGSLSKTRKRAGAQVSRQ | 0.312 ± 1.1
LVGPAVVSYCCIRLISVVD | 1.94 ± 0.58
WLGSYIVFLIRMETYDWWIV | -0.114 ± 0.38
SVGGVAGEF | -0.087 ± 0.96
YVADGLKDKQRCSACFDASS | 4.93 ± 0.063
GSTRYHAKMDPGWVRFT | -0.482 ± 1.7
IYRDGIGTDIWFRGSICKCL | 0.704 ± 0.61
YGFKSRDKPFNL | 0.008 ± 0.44

Substance | amyloid nucleation score
YEGGM | -0.334 ± 0.73
ANSVRWTCMLVIIFQYRPTS | 2.5 ± 0.15
HLGTTNMNVFNVG | 1.79 ± 0.082
VCKWNSSIFLYNRPSVSAAV | 0.123 ± 0.4
SRKVKVWPVGLRRLVMFFVN | 1.43 ± 0.53
YLMLCTEIEPKRAGGGMSER | inactive
ELKQIKVGRSLWRMVRRMGD | 1.37 ± 0.36
NKLRGGVGERSVLQGWIEED | -0.052 ± 0.53
YYTVLLRS | -0.453 ± 0.52
TLTRYC | -0.086 ± 1.2
VSNTSLYPDKESMLRGTEWE | 0.674 ± 0.77
SSRFVWIASKINILYNFQTY | -0.403 ± 0.7
PNIRHYVYNHN | inactive
NYLLWVQVWCRDWGNWGIMG | 1.41 ± 0.81
EFKLIDLFLLYWLSREHNQF | 0.391 ± 0.42
MERDEFKFLGERLGWLSCWR | 1.04 ± 0.57
YLSYDT | -0.411 ± 0.36
MWNGMAGMSQAGSCQRCS | -0.287 ± 0.71
TVFDSLC | 0.372 ± 1.2
LRNDLVETSVLGA | 1.47 ± 0.54
EFEPLSFQLVVELMRKFL | 1.52 ± 0.19
VGRNQNKTDEG | 0.564 ± 0.95
VYGSPPNMWNVV | 0.066 ± 0.79
CIFHL | 0.303 ± 0.65
MICMD | -0.27 ± 0.3

Substance | amyloid nucleation score
KSVPRKVFGAILDFLDLQLM | 0.979 ± 0.73
FVYDFNGKKFLGLSCALYII | 0.22 ± 1.2
TMSASLNYLTLVMN | 0.129 ± 0.59
PLNSRTCGPFARSSIWDWDT | 0.937 ± 0.9
SHVLCSDTNTI | inactive
GRSYFVVGFLSELCEKWLTK | 0.046 ± 1
IVYLSCFVRCP | 0.379 ± 0.56
TMDDYPLDLHCWAGS | 0.767 ± 1
TVPIRTTTLSNGAFVWLI | inactive
CVAWVSSNPRVGGDIRTWTE | 0.021 ± 0.48
WFWELGN | 0.201 ± 0.28
FQKYGQCSHYRVVDRKLQCS | 0.314 ± 1.4
PLNHNSY | 1.47 ± 0.51
LLLGDC | -1.43 ± 2.4
SVWDERIPGGYSPIRVCPSW | -0.337 ± 0.74
KICTYSRFC | 0.848 ± 0.39
VGWTALVQALGNGTQHGVVT | 0.394 ± 0.78
FSGLDYNVYVNLVPYFLCIN | 6.34 ± 0.077
GTLDDTGVTDDNFI | 1.19 ± 0.4
GQRLLL | 1.07 ± 0.56
HLYLFSGFRAVSESEVRGAK | 2.6 ± 0.22
NLEWGLYISTANCPRNYDKA | inactive
